This is an account of results in US20090053750A1 (CELL GENESYS, published 2009).

In one test the target is T1, class I MHC receptor HLA-A2 on T2 cells (human).
T1 construct: detected on the cell surface with a mouse anti-human HLA-A2 monoclonal antibody and goat anti-mouse IgG F(ab')2-FITC; also called HLA-A2 receptor; HLA-A2 class I MHC
In words: T2 cells, anti-HLA-A2 flow cytometry after brefeldin A; Assay #1; 8 hr. On the procedure:
(§1) Following overnight incubation, the cells were washed and stained with mouse anti-human HLA-A2 monoclonal antibody for 15 min at 4° C.
(§2) After washing, the cells were incubated with goat anti-mouse IgG (F(ab′)₂)-FITC (Sigma, St. Louis, Mo.) for 15 min at 4° C. The cells were washed and analyzed on a FACSort flow cytometer with CellQuest v2.1 software (Becton-Dickson, San Jose, Calif.). […] Up-regulation of HLA-A2 expression correlates with binding of HLA-A2 by the filamin-B peptides.
(§3) To test the stability of the interaction between the peptides and HLA-A2, fluorescence was monitored for several hours following the addition of brefeldin A to the assay.
For orientation: In flow cytometry, cells or beads pass a laser one at a time.
As to LILGLVWTL [Filamin B peptide #1], the fluorescence index was 3.22 F.I.
The molecule GLAPLEVRV [Filamin B peptide #3] returned a fluorescence index of 4.01 F.I.
As to SLQESGLKV [Filamin B peptide #4], the fluorescence index turned out to be 1.09 F.I.
Same read-out and setting: the figure for GQGDVMVFV [Filamin B peptide #6] is 1.09 F.I; for KLILGLVWT [Filamin B peptide #7] it is 1.09 F.I.

The target of a further test is T1, class I MHC receptor HLA-A2 on T2 cells. As to the kind of experiment: T2 cells, anti-HLA-A2 flow cytometry after brefeldin A; Assay #2; 2 hr. The protocol: as §1, §2, §3
The molecule LILGLVWTL [Filamin B peptide #1] displayed a fluorescence index of 2.17 F.I.
In the case of GLAPLEVRV [Filamin B peptide #3], the fluorescence index stood at 3.33 F.I.
In turn, SLQESGLKV [Filamin B peptide #4] showed a fluorescence index of 1.37 F.I.
Consider GQGDVMVFV [Filamin B peptide #6], for which the fluorescence index turned out to be 1.6 F.I.
Molecule KLILGLVWT [Filamin B peptide #7] came in with a fluorescence index of 1.07 F.I.

Another test has the same target. As to the kind of experiment: T2 cells, anti-HLA-A2 flow cytometry after brefeldin A; Assay #2; 18 hr. The protocol: as §1, §2, §3
Regarding LILGLVWTL [Filamin B peptide #1], the fluorescence index was 1.35 F.I.
GLAPLEVRV [Filamin B peptide #3] showed a fluorescence index of 2.1 F.I.
The same measure, in the same setting: as for SLQESGLKV [Filamin B peptide #4], the figure is 1 F.I; as for GQGDVMVFV [Filamin B peptide #6], 1 F.I; as for KLILGLVWT [Filamin B peptide #7], 1 F.I.

For the next test the target is unchanged. In words: T2 cells, anti-HLA-A2 flow cytometry after brefeldin A; Assay #1; 6 hr. The protocol:
as §1, §2, §3
LILGLVWTL [Filamin B peptide #1] returned a fluorescence index of 3.32 F.I.
For GLAPLEVRV [Filamin B peptide #3], the fluorescence index came to 4.27 F.I.
On the same count and under the same terms, the figure for SLQESGLKV [Filamin B peptide #4] is 1.18 F.I.
Still for that read-out and setting: as for GQGDVMVFV [Filamin B peptide #6], the figure is 1.23 F.I; as for KLILGLVWT [Filamin B peptide #7], 1.09 F.I.

For the next test the target is unchanged. As to the kind of experiment: T2 cells pulsed with peptide + b2m, anti-HLA-A2 flow cytometry; Assay #2. The protocol:
as §1, §2
On to LILGLVWTL [Filamin B peptide #1], for which the fluorescence index turned out to be 2.17.
Turning to GLAPLEVRV [Filamin B peptide #3], the fluorescence index is 3.64.
Consider SLQESGLKV [Filamin B peptide #4], for which the fluorescence index was found to be 1.61.
As to GQGDVMVFV [Filamin B peptide #6], the fluorescence index amounted to 1.96.
As for KLILGLVWT [Filamin B peptide #7], the fluorescence index amounted to 1.25.

The next test shares this target. In words: T2 cells, anti-HLA-A2 flow cytometry after brefeldin A; Assay #2; 0 hr. On the procedure:
as §1, §2, §3
Consider LILGLVWTL [Filamin B peptide #1], for which the fluorescence index stood at 2.17 F.I.
GLAPLEVRV [Filamin B peptide #3] came in with a fluorescence index of 3.64 F.I.
Still for that read-out and setting: the figure for SLQESGLKV [Filamin B peptide #4] is 1.61 F.I; for GQGDVMVFV [Filamin B peptide #6] it is 1.96 F.I; for KLILGLVWT [Filamin B peptide #7] it is 1.25 F.I.

The next test shares this target. In words: T2 cells, anti-HLA-A2 flow cytometry after brefeldin A; Assay #2; 8 hr. On the procedure:
as §1, §2, §3
Molecule LILGLVWTL [Filamin B peptide #1] registered a fluorescence index of 1.57 F.I.
With GLAPLEVRV [Filamin B peptide #3], the fluorescence index is 2.89 F.I.
SLQESGLKV [Filamin B peptide #4]: the fluorescence index came to 1 F.I.
On to GQGDVMVFV [Filamin B peptide #6], for which the fluorescence index worked out at 1 F.I.
KLILGLVWT [Filamin B peptide #7] yielded a fluorescence index of 1 F.I.

Another test has the same target. In words: T2 cells, anti-HLA-A2 flow cytometry after brefeldin A; Average; 8 hr. On the procedure:
as §1, §2, §3
As to LILGLVWTL [Filamin B peptide #1], the fluorescence index is 2.4 F.I.
Take GLAPLEVRV [Filamin B peptide #3]: the fluorescence index came to 3.45 F.I.
SLQESGLKV [Filamin B peptide #4] returned a fluorescence index of 1.05 F.I.
GQGDVMVFV [Filamin B peptide #6]: the fluorescence index is 1.05 F.I.
For KLILGLVWT [Filamin B peptide #7], the fluorescence index was 1.05 F.I.

The target is the same in a further test. In words: T2 cells, anti-HLA-A2 flow cytometry after brefeldin A; Average; 6 hr. On the procedure:
as §1, §2, §3
Regarding LILGLVWTL [Filamin B peptide #1], the fluorescence index was found to be 2.58 F.I.
Still for that read-out and setting: as for GLAPLEVRV [Filamin B peptide #3], the figure is 3.61 F.I; as for SLQESGLKV [Filamin B peptide #4], 1.09 F.I; as for GQGDVMVFV [Filamin B peptide #6], 1.12 F.I.
In turn, KLILGLVWT [Filamin B peptide #7] came in with a fluorescence index of 1.05 F.I.

Another test has the same target. As to the kind of experiment: T2 cells pulsed with peptide + b2m, anti-HLA-A2 flow cytometry; Assay #1. The protocol:
as §1, §2
Consider LILGLVWTL [Filamin B peptide #1], for which the fluorescence index was 3.46.
As to GLAPLEVRV [Filamin B peptide #3], the fluorescence index is 4.21.
For the molecule SLQESGLKV [Filamin B peptide #4], the fluorescence index was determined as 1.96.
In the case of GQGDVMVFV [Filamin B peptide #6], the fluorescence index came to 2.67.
In the case of KLILGLVWT [Filamin B peptide #7], the fluorescence index is 1.38.

For the next test the target is unchanged. As to the kind of experiment: T2 cells, anti-HLA-A2 flow cytometry after brefeldin A; Assay #1; 0 hr. The protocol: as §1, §2, §3
For LILGLVWTL [Filamin B peptide #1], the fluorescence index worked out at 3.46 F.I.
GLAPLEVRV [Filamin B peptide #3]: the fluorescence index stood at 4.21 F.I.
As to SLQESGLKV [Filamin B peptide #4], the fluorescence index was 1.96 F.I.
On the same count and under the same terms, the figure for GQGDVMVFV [Filamin B peptide #6] is 2.67 F.I.
On the same count and under the same terms, as for KLILGLVWT [Filamin B peptide #7], the figure is 1.38 F.I.

The target is the same in the next test. In words: T2 cells, anti-HLA-A2 flow cytometry after brefeldin A; Average; 4 hr. On the procedure: as §1, §2, §3
On to LILGLVWTL [Filamin B peptide #1], for which the fluorescence index was 2.67 F.I.
The molecule GLAPLEVRV [Filamin B peptide #3] gave a fluorescence index of 3.79 F.I.
Take SLQESGLKV [Filamin B peptide #4]: the fluorescence index came to 1.28 F.I.
The molecule GQGDVMVFV [Filamin B peptide #6] came in with a fluorescence index of 1.47 F.I.
KLILGLVWT [Filamin B peptide #7] yielded a fluorescence index of 1.16 F.I.

The target is the same in a further test. As to the kind of experiment: T2 cells, anti-HLA-A2 flow cytometry after brefeldin A; Average; 0 hr. The protocol:
as §1, §2, §3
With LILGLVWTL [Filamin B peptide #1], the fluorescence index came out at 2.82 F.I.
GLAPLEVRV [Filamin B peptide #3]: the fluorescence index amounted to 3.93 F.I.
The molecule SLQESGLKV [Filamin B peptide #4] registered a fluorescence index of 1.79 F.I.
Consider GQGDVMVFV [Filamin B peptide #6], for which the fluorescence index amounted to 2.32 F.I.
As for KLILGLVWT [Filamin B peptide #7], the fluorescence index stood at 1.32 F.I.

The target is the same in another test. As to the kind of experiment: T2 cells, anti-HLA-A2 flow cytometry after brefeldin A; Average; 2 hr. The protocol: as §1, §2, §3
Take LILGLVWTL [Filamin B peptide #1]: the fluorescence index stood at 2.67 F.I.
For GLAPLEVRV [Filamin B peptide #3], the fluorescence index is 3.82 F.I.
Consider SLQESGLKV [Filamin B peptide #4], for which the fluorescence index amounted to 1.4 F.I.
Molecule GQGDVMVFV [Filamin B peptide #6] registered a fluorescence index of 1.67 F.I.
KLILGLVWT [Filamin B peptide #7] had a fluorescence index of 1.16 F.I.

The target is the same in the next test. In words: T2 cells, anti-HLA-A2 flow cytometry after brefeldin A; Assay #1; 4 hr. The protocol:
as §1, §2, §3
LILGLVWTL [Filamin B peptide #1]: the fluorescence index came to 3.17 F.I.
The same measure, in the same setting: as for GLAPLEVRV [Filamin B peptide #3], the figure is 4.22 F.I; as for SLQESGLKV [Filamin B peptide #4], 1.43 F.I; as for GQGDVMVFV [Filamin B peptide #6], 1.65 F.I.
For KLILGLVWT [Filamin B peptide #7], the fluorescence index was determined as 1.22 F.I.

Another test has the same target. In words: T2 cells, anti-HLA-A2 flow cytometry after brefeldin A; Assay #2; 4 hr. The protocol: as §1, §2, §3
LILGLVWTL [Filamin B peptide #1] came in with a fluorescence index of 2.16 F.I.
As to GLAPLEVRV [Filamin B peptide #3], the fluorescence index is 3.35 F.I.
As to SLQESGLKV [Filamin B peptide #4], the fluorescence index worked out at 1.13 F.I.
Still for that read-out and setting: as for GQGDVMVFV [Filamin B peptide #6], the figure is 1.29 F.I; as for KLILGLVWT [Filamin B peptide #7], 1.1 F.I.

The target is the same in another test. In words: T2 cells, anti-HLA-A2 flow cytometry after brefeldin A; Assay #1; 2 hr. The protocol: as §1, §2, §3
In turn, LILGLVWTL [Filamin B peptide #1] returned a fluorescence index of 3.17 F.I.
On the same count and under the same terms, as for GLAPLEVRV [Filamin B peptide #3], the figure is 4.3 F.I; as for SLQESGLKV [Filamin B peptide #4], 1.43 F.I.
Same read-out and setting: the figure for GQGDVMVFV [Filamin B peptide #6] is 1.74 F.I.
As to KLILGLVWT [Filamin B peptide #7], the fluorescence index is 1.24 F.I.

The target is the same in the next test. In words: T2 cells pulsed with peptide + b2m, anti-HLA-A2 flow cytometry; Average. The protocol: as §1, §2
With LILGLVWTL [Filamin B peptide #1], the fluorescence index came to 2.82.
Take GLAPLEVRV [Filamin B peptide #3]: the fluorescence index is 3.93.
On to SLQESGLKV [Filamin B peptide #4], for which the fluorescence index came out at 1.79.
On to GQGDVMVFV [Filamin B peptide #6], for which the fluorescence index worked out at 2.32.
For the molecule KLILGLVWT [Filamin B peptide #7], the fluorescence index was 1.32.

The target is the same in the next test. As to the kind of experiment: T2 cells, anti-HLA-A2 flow cytometry after brefeldin A; Assay #2; 6 hr. The protocol: as §1, §2, §3
Take LILGLVWTL [Filamin B peptide #1]: the fluorescence index amounted to 1.83 F.I.
Turning to GLAPLEVRV [Filamin B peptide #3], the fluorescence index was found to be 2.94 F.I.
SLQESGLKV [Filamin B peptide #4] showed a fluorescence index of 1 F.I.
Consider GQGDVMVFV [Filamin B peptide #6], for which the fluorescence index was 1 F.I.
Turning to KLILGLVWT [Filamin B peptide #7], the fluorescence index was determined as 1 F.I.

A further test shares this target. In words: T2 cells, anti-HLA-A2 flow cytometry after brefeldin A; Assay #1; 18 hr. The protocol: as §1, §2, §3
Take LILGLVWTL [Filamin B peptide #1]: the fluorescence index amounted to 2.45 F.I.
The same measure, in the same setting: as for GLAPLEVRV [Filamin B peptide #3], the figure is 3.1 F.I; as for SLQESGLKV [Filamin B peptide #4], 1.1 F.I; as for GQGDVMVFV [Filamin B peptide #6], 1.1 F.I.
As for KLILGLVWT [Filamin B peptide #7], the fluorescence index was determined as 1.25 F.I.

The target is the same in another test. As to the kind of experiment: T2 cells, anti-HLA-A2 flow cytometry after brefeldin A; Average; 18 hr. On the procedure: as §1, §2, §3
Consider LILGLVWTL [Filamin B peptide #1], for which the fluorescence index is 1.9 F.I.
As for GLAPLEVRV [Filamin B peptide #3], the fluorescence index came to 2.6 F.I.
As for SLQESGLKV [Filamin B peptide #4], the fluorescence index was 1.05 F.I.
In the case of GQGDVMVFV [Filamin B peptide #6], the fluorescence index is 1.05 F.I.
In turn, KLILGLVWT [Filamin B peptide #7] gave a fluorescence index of 1.13 F.I.
